Reference: patent publication US20230272048A1 (UNIVERSITY OF MELBOURNE, published 2023)

Experiments:
M475A = biological target: T1, M475A (HIV-1); test: capture ELISA on Env of lysed AD8 pseudovirus, % of WT
T1 construct: full-length Env of lysed pseudovirus; HXB-2 numbering

M373A = biological target: T2, M373A (HIV-1); test: as above
T2 construct: full-length Env of lysed pseudovirus; HXB-2 numbering

S365A = biological target: T3, S365A (HIV-1); test: as above
T3 construct: full-length Env of lysed pseudovirus; HXB-2 numbering

G472A = biological target: T4, G472A (HIV-1); test: as above
T4 construct: full-length Env of lysed pseudovirus; HXB-2 numbering

D185A = biological target: T5, D185A (HIV-1); test: as above
T5 construct: full-length Env of lysed pseudovirus; HXB-2 numbering

R419A = biological target: T6, R419A (HIV-1); test: as above
T6 construct: full-length Env of lysed pseudovirus; HXB-2 numbering

K282A = biological target: T7, K282A (HIV-1); test: as above
T7 construct: full-length Env of lysed pseudovirus; HXB-2 numbering

N276A = biological target: T8, N276A (HIV-1); test: as above
T8 construct: full-length Env of lysed pseudovirus; HXB-2 numbering

K121A = biological target: T9, K121A (HIV-1); test: as above
T9 construct: full-length Env of lysed pseudovirus; HXB-2 numbering

E87A = biological target: T10, E87A (HIV-1); test: as above
T10 construct: full-length Env of lysed pseudovirus; HXB-2 numbering

L179A = biological target: T11, L179A (HIV-1); test: as above
T11 construct: full-length Env of lysed pseudovirus; HXB-2 numbering

P313A = biological target: T12, P313A (HIV-1); test: as above
T12 construct: full-length Env of lysed pseudovirus; HXB-2 numbering

P369A = biological target: T13, P369A (HIV-1); test: as above
T13 construct: full-length Env of lysed pseudovirus; HXB-2 numbering

N197A = biological target: T14, N197A (HIV-1); test: as above
T14 construct: full-length Env of lysed pseudovirus; HXB-2 numbering

A329K = biological target: T15, A329K (HIV-1); test: as above
T15 construct: full-length Env of lysed pseudovirus; HXB-2 numbering

R476A = biological target: T16, R476A (HIV-1); test: as above
T16 construct: full-length Env of lysed pseudovirus; HXB-2 numbering

Q363A = biological target: T17, Q363A (HIV-1); test: as above
T17 construct: full-length Env of lysed pseudovirus; HXB-2 numbering

N283A = biological target: T18, N283A (HIV-1); test: as above
T18 construct: full-length Env of lysed pseudovirus; HXB-2 numbering

N262A = biological target: T19, N262A (HIV-1); test: as above
T19 construct: full-length Env of lysed pseudovirus; HXB-2 numbering

SS-B = biological target: T20, SS-B (human, UniProt P05455 1-408); test: single autoantigen ELISA (AESKULISA ANA-8Pro), FIG. 9A
T20 sequence (looked up): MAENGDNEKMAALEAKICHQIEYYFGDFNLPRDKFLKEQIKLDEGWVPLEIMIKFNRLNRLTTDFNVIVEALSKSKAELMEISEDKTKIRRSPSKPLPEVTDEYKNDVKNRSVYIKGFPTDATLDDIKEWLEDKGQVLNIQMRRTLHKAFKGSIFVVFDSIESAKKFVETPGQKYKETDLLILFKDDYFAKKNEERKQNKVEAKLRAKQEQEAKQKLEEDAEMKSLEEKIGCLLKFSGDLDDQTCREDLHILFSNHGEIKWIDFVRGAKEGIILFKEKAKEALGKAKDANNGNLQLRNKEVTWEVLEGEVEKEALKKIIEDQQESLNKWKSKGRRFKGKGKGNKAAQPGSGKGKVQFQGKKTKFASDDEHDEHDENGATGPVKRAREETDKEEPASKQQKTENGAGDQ
Description: (§1) Polyreactivity assay: Single autoantigen reactivity. […] ANA-8Pro (Aesku) for U1-ribonucleoprotein (RNP), SnRNP/Sm, Sm, SS-A, SS-B, Jo-1, Scl-70, and CenpB. The 96 wells were coated with these cellular and nuclear antigens for the qualitative detection of mAbs reactivity. The cut-off calibrator, negative control and positive control were provided by the manufacturer.

Jo-1 = biological target: T21, Jo-1 (human, UniProt P12081 1-509); test: as above
T21 sequence (looked up): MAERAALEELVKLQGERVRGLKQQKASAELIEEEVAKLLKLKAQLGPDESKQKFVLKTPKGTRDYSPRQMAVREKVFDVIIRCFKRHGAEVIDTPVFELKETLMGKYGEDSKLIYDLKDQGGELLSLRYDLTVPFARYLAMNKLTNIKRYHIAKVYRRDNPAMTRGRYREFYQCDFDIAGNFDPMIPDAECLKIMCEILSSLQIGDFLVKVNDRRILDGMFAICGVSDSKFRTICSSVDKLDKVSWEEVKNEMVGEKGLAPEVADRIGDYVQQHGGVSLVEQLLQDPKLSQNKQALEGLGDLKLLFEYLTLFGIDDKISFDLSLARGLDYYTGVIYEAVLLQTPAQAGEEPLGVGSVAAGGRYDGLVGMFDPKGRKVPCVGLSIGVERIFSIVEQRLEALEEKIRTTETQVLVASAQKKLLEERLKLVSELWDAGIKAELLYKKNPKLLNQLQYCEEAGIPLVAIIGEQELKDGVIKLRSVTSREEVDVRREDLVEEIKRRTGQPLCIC
Description: as §1

B1: MEL-1872 (antibody)
VH: KVQLRESGPSLVKPSQTLSLTCTASGFSLSDKAVGWVRQAPGQPLEWLGTIDTTGNAVYNPGLKSRLSITKDNSKSQVSLSLSSVTTEDSATYHCSTVHQKTRRSCPSDYSFICDCEGTGSHCCRASNCPYYCNYGRDRMCTGRSNIHEWHVDAWGQGLLVTVSS
VL: QAVLTQPSSVSGSLGQRVSTTCSGSSSNVGNGYVSWYQLIPGSAPRTLIYGDTSRASGVPDRFSGSRSGNTVTLTISSLQAEDEADYFCASAEDGSSNAVFGRGTTLTV
notes: also called H 1872; BrNAb MEL-1872
M475A
  Env binding (%) at antibody EC50: 82%
M373A
  Env binding (%) at antibody EC50: 102%
S365A
  Env binding (%) at antibody EC50: 70%
G472A
  Env binding (%) at antibody EC50: 29%
D185A
  Env binding (%) at antibody EC50: 99%
R419A
  Env binding (%) at antibody EC50: 108%
K282A
  Env binding (%) at antibody EC50: 63%
N276A
  Env binding (%) at antibody EC50: 100%
K121A
  Env binding (%) at antibody EC50: 94%
E87A
  Env binding (%) at antibody EC50: 87%
L179A
  Env binding (%) at antibody EC50: 110%
P313A
  Env binding (%) at antibody EC50: 100%
P369A
  Env binding (%) at antibody EC50: 88%
N197A
  Env binding (%) at antibody EC50: 92%
A329K
  Env binding (%) at antibody EC50: 38%
R476A
  Env binding (%) at antibody EC50: 57%
Q363A
  Env binding (%) at antibody EC50: 93%
N283A
  Env binding (%) at antibody EC50: 76%
N262A
  Env binding (%) at antibody EC50: 27%

B2: MEL-1842 (antibody)
VH: KVQLQESGPSLVKPSQTLSLTCTASGFSLSDKAVGWVRQAPGQALEWLGSIDTGGNADYNPGLKSRLSITKDNAKSQVSLSVSSVTTEGSATYYCSTVHQKTLRSCPSDYPYICDCEDTGSHCCRATNCPYYCNHGRDRMCTGRTYTYEWHVEAWGQGLLVTVSS
VL: QAVLTQPSSVSGSLGQRVSTTCSGSSSNVGNGYVSWYQLIPGSAPRTLIYGDTSRASGVPDRFSGSRSGNTVTLTISSLQAEDEADYFCASAEDGSSNAVFGRGTTLTV
notes: also called H 1842; BrNAb MEL-1842
M475A
  Env binding (%) at antibody EC50: 99%
M373A
  Env binding (%) at antibody EC50: 102%
S365A
  Env binding (%) at antibody EC50: 37%
G472A
  Env binding (%) at antibody EC50: 39%
D185A
  Env binding (%) at antibody EC50: 100%
R419A
  Env binding (%) at antibody EC50: 110%
K282A
  Env binding (%) at antibody EC50: 84%
N276A
  Env binding (%) at antibody EC50: 100%
K121A
  Env binding (%) at antibody EC50: 107%
E87A
  Env binding (%) at antibody EC50: 108%
L179A
  Env binding (%) at antibody EC50: 110%
P313A
  Env binding (%) at antibody EC50: 100%
P369A
  Env binding (%) at antibody EC50: 94%
N197A
  Env binding (%) at antibody EC50: 93%
A329K
  Env binding (%) at antibody EC50: 101%
R476A
  Env binding (%) at antibody EC50: 81%
Q363A
  Env binding (%) at antibody EC50: 97%
N283A
  Env binding (%) at antibody EC50: 82%
N262A
  Env binding (%) at antibody EC50: 44%
SS-B
  binding result: no binding (tested: 100 µg/ml)
Jo-1
  binding result: no binding (tested: 100 µg/ml)

B3: MEL-2129 (antibody)
VH: KVQLRESGPSLVKPSQTLSLTCTASGFSLSDKAVGWVRQAPGKALEWLGSIDTGGNAGYNPGLKSRLSITKGNSKSQVSLSVSSVTTEDSATYYCSTVHQKTRRSCPVDYYYSCDCEGSGSHCCSASNCPYYCKYGRDRVCTDKHTYSYEWYVDAWGQGLLVTVSS
VL: QAVLTQPSSVSGSLGQRVSTTCSGSSSNVGNGYVSWYQLIPGSAPRTLIYGDTSRASGVPDRFSGSRSGNTVTLTISSLQAEDEADYFCASAEDGSSNAVFGRGTTLTV
notes: also called BrNAb MEL-2129
M475A
  Env binding (%) at antibody EC50: 63%
M373A
  Env binding (%) at antibody EC50: 92%
S365A
  Env binding (%) at antibody EC50: 126%
G472A
  Env binding (%) at antibody EC50: 15%
D185A
  Env binding (%) at antibody EC50: 93%
R419A
  Env binding (%) at antibody EC50: 93%
K282A
  Env binding (%) at antibody EC50: 85%
N276A
  Env binding (%) at antibody EC50: 89%
K121A
  Env binding (%) at antibody EC50: 80%
E87A
  Env binding (%) at antibody EC50: 81%
L179A
  Env binding (%) at antibody EC50: 101%
P313A
  Env binding (%) at antibody EC50: 84%
P369A
  Env binding (%) at antibody EC50: 81%
N197A
  Env binding (%) at antibody EC50: 82%
A329K
  Env binding (%) at antibody EC50: 46%
R476A
  Env binding (%) at antibody EC50: 64%
Q363A
  Env binding (%) at antibody EC50: 79%
N283A
  Env binding (%) at antibody EC50: 64%
N262A
  Env binding (%) at antibody EC50: 18%
SS-B
  binding result: no binding (tested: 100 µg/ml)
Jo-1
  binding result: no binding (tested: 100 µg/ml)
